Experimental findings from the supplement of paper PMC9170038 are described below.

In the series the test system is MS2 coat protein. The series is described as follows: apparent KD of MS2 coat protein; designed switch direction (-1 OFF switch, 1 ON switch): -1; higher = weaker reporter binding. The method, boiled down:
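RNA switches sharing common flanks were transcribed by stalled E. coli RNA polymerase on Illumina chips. A doubling series of SNAP-549-labelled MS2 coat protein, from 0.7 or 1.5 nM to 3 µM, was applied in Tris-HCl pH 7.5 buffer with KCl, MgCl2, BSA, DTT, tRNA and Tween-20. Each step lasted 0.8–1.5 h at the bottom of the series and 10–20 min at the top. Normalised cluster fluorescence was curve-fitted, giving apparent KD as the per-design median over clusters.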

The mark [1] stands for this setting: input ligand: microRNA oligo, concentration not stated.
[2] abbreviates: Eterna round: R95, input ligand: FMN 200 uM.
Setting [3] is: Eterna round: R95, input ligand: microRNA oligo, concentration not stated.
Where [4] appears, read: Eterna round: R95, input ligand: none.

Turning to “UUGUUGUAUGUAGGAUAUGCGUGUUAUUAUUAUGCAGAAGGACAUGAGGAUCACCCAUGUAUAUUAUUAUUAUAUGUUAUAUAU [Title] (Eterna round: R96, puzzle: Exclusion NG 1)”, the “apparent KD of MS2 coat protein” value under setting [1] came to 17.6 nM.
In the case of “UUGUUGUGUGUAGGAUAUGCGUAUUAUUAUUAUGCAGAAGGACAUGAGGAUCACCCAUGUGUAUUAUUAUUAUAUAUUAUAUAU [Title] (Eterna round: R96, puzzle: Exclusion NG 1)”, the “apparent KD of MS2 coat protein” value runs as follows: (input ligand: FMN 200 uM) 43.3 nM; under setting [1], 21.8 nM; (input ligand: none) 25 nM.
On the same counts, the results for “UUGUUGUGUGUAGGAUAUGCGUGUUAUUAUUAUGCAGAAGGACAUGAGGAUCACCCAUGUGUAUUAUUAUUAUAUAUUAUAUAU [Title] (Eterna round: R96, puzzle: Exclusion NG 1)” are 23.8 nM, 17.1 nM and 23.5 nM.
Take “UUUAAAACAUAGGAUAUCGAAAAUAUCAUUUAACGAGAAGGAUGAACAUGAGGAUCACCCAUGUGGUAUCAUGG [Mat - Exclusion 6 - JL Mod - D16] (puzzle: Exclusion 6)”: the “apparent KD of MS2 coat protein” value is 320 nM under setting [2], 580 nM under setting [3] and 313 nM under setting [4].
“UUUAACGAUGAGGAUAUAUGAUAUCAAAGCAUCAUAGAAGGCAUCACAUGAGGAUCACCCAUGUGAUCUUCUUG [Mat - Exclusion 6 - JL Mod - D28] (Eterna round: R97, puzzle: Exclusion 6)”: the “apparent KD of MS2 coat protein” value reads like this: (input ligand: FMN 200 uM) 94 nM; (input ligand: none) 29.4 nM.
For “UUUAAGGAAGGAUAUACAAUAUAAAUAAUAUCCUCAUUAUUACAUGAGGAUCACCCAUGUAGAAGGUCCAAUUU [Mat - Exclusion 2 - Mod of Hog - D89] (puzzle: Exclusion 2)”, the “apparent KD of MS2 coat protein” value under setting [3] came out at 137 nM.
Take “UUUAAGUAAGGAUAUGCGAGCCACGGAAAUAAAACGUGGAGGUAGAAGGUACAUGAGGAUCACCCAUGUAAAAC [Mod of Anonveat 23 - Jieux - Exclusion 4] (Eterna round: R97, puzzle: Exclusion 4)”: the “apparent KD of MS2 coat protein” value turned out to be 21.8 nM (input ligand: FMN 200 uM) and 23.1 nM (input ligand: none).
As for “UUUAAUUGUCAGAUGGGUGACAUGAGGAUCACCCAUGUCACAAGCUUUUUGUUCGUCUUAUAAUUAACCCAUCUGAC [Stov1/11-B1] (Eterna round: R97, puzzle: Sensor, turn-off variant 1)”, the “apparent KD of MS2 coat protein” value by setting is: (input ligand: FMN 200 uM) 14 nM; (input ligand: none) 13.8 nM.
“UUUAAUUUAAUUAAGAUCACAUGAGGAUCACCCAUGUAAUUAUAGGAUAUCAGCUCGAUUAGAGCUGAGAAGGAUAAUUACAUA [ExNG3/5-A1] (Eterna round: R96, puzzle: Exclusion NG 3)”: the “apparent KD of MS2 coat protein” value runs as follows: (input ligand: FMN 200 uM) 105 nM; under setting [1], 75.1 nM; (input ligand: none) 58.1 nM.
As to “UUUAAUUUAAUUAAGAUCACAUGAGGAUCACCCAUGUAAUUAUAGGAUAUCAGCUCGUUUAGAGCUGAGAAGGAUAAUUACAUA [ExNG3/5-A2] (Eterna round: R96, puzzle: Exclusion NG 3)”, under setting [1], the “apparent KD of MS2 coat protein” value is 23.8 nM.
Regarding “UUUAAUUUUUUUUUUUUACAAGCUUUUUGCUCGUCUUAUACAUGAGGAUCACCCAUGUAAAUGGGAAGUAAAUUAUC [JMF 50] (puzzle: Sensor v3, turn-off variant 2)”, the “apparent KD of MS2 coat protein” value reads like this: under setting [2], 59.5 nM; under setting [3], 207 nM; under setting [4], 93.1 nM.
The matching figures for “UUUAAUUUUUUUUUUUUACAAGCUUUUUGCUCGUCUUAUACAUGAGGAUCACCCAUGUAAGUGAGGGAUAAAUUAUC [JMF 40] (puzzle: Sensor v3, turn-off variant 2)”: 15.6 nM, 22.8 nM and 15.6 nM.
